Assays:
Assay in all cases: fluorescence polarisation
[1] = target: fluorescent peptide corresponding to the SH3 binding motif of FraC (Anabaena sp. strain PCC 7120)
[2] = target: SepJ peptide bearing proline-to-serine substitutions (Anabaena sp. strain PCC 7120)
[3] = target: fluorescent peptide corresponding to the SH3 binding motif of SepJ (Anabaena sp. strain PCC 7120)

## His-tagged SjcF1 (All1861 without transmembrane domain) (domain or fragment)
[1]
  Kd: 12 µM
[2]
  Kd: > 2000 µM
[3]
  Kd: 39 µM
